From patent US20110237779A1 (Genentech, published 2011)

B1: D3 library clone, CDR-L1 KGQRVLNSWLS (Fab, V domains shown)
VH: EVQLVESGGGLVQPGGSLRLSCAASGFNIKDYYMHWVRQAPGKGLEWVGWIDPENGNTIYDPKFQDRFTISADTSKNTAYLQMNSLRAEDTAVYYCARDTAAYFDYWGQGTLVTVSS
VL: DIQMTQSPSSLSASVGDRVTITCKGQRVLNSWLSWYQQKPGKAPKLLIYYATSLADGVPSRFSGSGSGTDFTLTISSLQPEDFATYYCLQHGESPFTFGQGTKVEIK
notes: Changes against the D3 direct graft (Kabat): VL A25G, S26Q, D28V, I29L, K30N, Y32W; copies: 1 + 1
B2: D3 library clone, CDR-L1 KGSGYIKHFVS (Fab, V domains shown)
VH: EVQLVESGGGLVQPGGSLRLSCAASGFNIKDYYMHWVRQAPGKGLEWVGWIDPENGNTIYDPKFQDRFTISADTSKNTAYLQMNSLRAEDTAVYYCARDTAAYFDYWGQGTLVTVSS
VL: DIQMTQSPSSLSASVGDRVTITCKGSGYIKHFVSWYQQKPGKAPKLLIYYATSLADGVPSRFSGSGSGTDFTLTISSLQPEDFATYYCLQHGESPFTFGQGTKVEIK
notes: Changes against the D3 direct graft (Kabat): VL A25G, R27G, D28Y, S31H, Y32F, L33V; Siblings 2; copies: 1 + 1
B3: D3 library clone, CDR-L1 KGSRDTTSFVS (Fab, V domains shown)
VH: EVQLVESGGGLVQPGGSLRLSCAASGFNIKDYYMHWVRQAPGKGLEWVGWIDPENGNTIYDPKFQDRFTISADTSKNTAYLQMNSLRAEDTAVYYCARDTAAYFDYWGQGTLVTVSS
VL: DIQMTQSPSSLSASVGDRVTITCKGSRDTTSFVSWYQQKPGKAPKLLIYYATSLADGVPSRFSGSGSGTDFTLTISSLQPEDFATYYCLQHGESPFTFGQGTKVEIK
notes: Changes against the D3 direct graft (Kabat): VL A25G, I29T, K30T, Y32F, L33V; copies: 1 + 1
B4: D3 library clone, CDR-L1 NASLVINRWLS (Fab, V domains shown)
VH: EVQLVESGGGLVQPGGSLRLSCAASGFNIKDYYMHWVRQAPGKGLEWVGWIDPENGNTIYDPKFQDRFTISADTSKNTAYLQMNSLRAEDTAVYYCARDTAAYFDYWGQGTLVTVSS
VL: DIQMTQSPSSLSASVGDRVTITCNASLVINRWLSWYQQKPGKAPKLLIYYATSLADGVPSRFSGSGSGTDFTLTISSLQPEDFATYYCLQHGESPFTFGQGTKVEIK
notes: Changes against the D3 direct graft (Kabat): VL K24N, R27L, D28V, K30N, S31R, Y32W; copies: 1 + 1
B5: D3 library clone, CDR-L2 DAIGLAD (Fab, V domains shown)
VH: EVQLVESGGGLVQPGGSLRLSCAASGFNIKDYYMHWVRQAPGKGLEWVGWIDPENGNTIYDPKFQDRFTISADTSKNTAYLQMNSLRAEDTAVYYCARDTAAYFDYWGQGTLVTVSS
VL: DIQMTQSPSSLSASVGDRVTITCKASRDIKSYLSWYQQKPGKAPKLLIYDAIGLADGVPSRFSGSGSGTDFTLTISSLQPEDFATYYCLQHGESPFTFGQGTKVEIK
notes: Changes against the D3 direct graft (Kabat): VL Y50D, T52I, S53G; copies: 1 + 1
B6: D3 library clone, CDR-L2 RGTSLFE, VL K24E, D28V, Y32F (Fab, V domains shown)
VH: EVQLVESGGGLVQPGGSLRLSCAASGFNIKDYYMHWVRQAPGKGLEWVGWIDPENGNTIYDPKFQDRFTISADTSKNTAYLQMNSLRAEDTAVYYCARDTAAYFDYWGQGTLVTVSS
VL: DIQMTQSPSSLSASVGDRVTITCEASRVIKSFLSWYQQKPGKAPKLLIYRGTSLFEGVPSRFSGSGSGTDFTLTISSLQPEDFATYYCLQHGESPFTFGQGTKVEIK
notes: Changes against the D3 direct graft (Kabat): VL K24E, D28V, Y32F, Y50R, A51G, A55F, D56E; copies: 1 + 1
B7: D3 library clone, CDR-L2 YAPGLAD (Fab, V domains shown)
VH: EVQLVESGGGLVQPGGSLRLSCAASGFNIKDYYMHWVRQAPGKGLEWVGWIDPENGNTIYDPKFQDRFTISADTSKNTAYLQMNSLRAEDTAVYYCARDTAAYFDYWGQGTLVTVSS
VL: DIQMTQSPSSLSASVGDRVTITCKASRDIKSYLSWYQQKPGKAPKLLIYYAPGLADGVPSRFSGSGSGTDFTLTISSLQPEDFATYYCLQHGESPFTFGQGTKVEIK
notes: Changes against the D3 direct graft (Kabat): VL T52P, S53G; Siblings 2; copies: 1 + 1
B8: D3 library clone, CDR-L2 YAPGPAD (Fab, V domains shown)
VH: EVQLVESGGGLVQPGGSLRLSCAASGFNIKDYYMHWVRQAPGKGLEWVGWIDPENGNTIYDPKFQDRFTISADTSKNTAYLQMNSLRAEDTAVYYCARDTAAYFDYWGQGTLVTVSS
VL: DIQMTQSPSSLSASVGDRVTITCKASRDIKSYLSWYQQKPGKAPKLLIYYAPGPADGVPSRFSGSGSGTDFTLTISSLQPEDFATYYCLQHGESPFTFGQGTKVEIK
notes: Changes against the D3 direct graft (Kabat): VL T52P, S53G, L54P; copies: 1 + 1
B9: D3 library clone, CDR-L2 YAPRRAR (Fab, V domains shown)
VH: EVQLVESGGGLVQPGGSLRLSCAASGFNIKDYYMHWVRQAPGKGLEWVGWIDPENGNTIYDPKFQDRFTISADTSKNTAYLQMNSLRAEDTAVYYCARDTAAYFDYWGQGTLVTVSS
VL: DIQMTQSPSSLSASVGDRVTITCKASRDIKSYLSWYQQKPGKAPKLLIYYAPRRARGVPSRFSGSGSGTDFTLTISSLQPEDFATYYCLQHGESPFTFGQGTKVEIK
notes: Changes against the D3 direct graft (Kabat): VL T52P, S53R, L54R, D56R; Siblings 2; copies: 1 + 1
B10: D3 library clone, CDR-L2 YAPSLAD (Fab, V domains shown)
VH: EVQLVESGGGLVQPGGSLRLSCAASGFNIKDYYMHWVRQAPGKGLEWVGWIDPENGNTIYDPKFQDRFTISADTSKNTAYLQMNSLRAEDTAVYYCARDTAAYFDYWGQGTLVTVSS
VL: DIQMTQSPSSLSASVGDRVTITCKASRDIKSYLSWYQQKPGKAPKLLIYYAPSLADGVPSRFSGSGSGTDFTLTISSLQPEDFATYYCLQHGESPFTFGQGTKVEIK
notes: Change against the D3 direct graft (Kabat): VL T52P; copies: 1 + 1
B11: D3 library clone, CDR-L2 YATGETD (Fab, V domains shown)
VH: EVQLVESGGGLVQPGGSLRLSCAASGFNIKDYYMHWVRQAPGKGLEWVGWIDPENGNTIYDPKFQDRFTISADTSKNTAYLQMNSLRAEDTAVYYCARDTAAYFDYWGQGTLVTVSS
VL: DIQMTQSPSSLSASVGDRVTITCKASRDIKSYLSWYQQKPGKAPKLLIYYATGETDGVPSRFSGSGSGTDFTLTISSLQPEDFATYYCLQHGESPFTFGQGTKVEIK
notes: Changes against the D3 direct graft (Kabat): VL S53G, L54E, A55T; Siblings 2; copies: 1 + 1

target: T1, human tissue factor (human, UniProt P13726 33-251, limits assumed); assay: phage ELISA, solution competition: Fab-phage incubated with serially diluted TF, unbound phage captured on TF-coated wells; IC50 used as affinity estimate
T1 construct: construct not described; also called TF

Compared with B1, B2 is 2.3-fold lower in IC50: 21 nM for the first, 9 nM for the second.

B3 and B4 are within 1.5-fold of each other in IC50: 19 nM for the first, 16 nM for the second.

First: B5
Second: B6
The IC50 of the first is 1.7-fold higher: 17 nM for the first, 10 nM for the second.

B7 and B8 are within 1.5-fold of each other in IC50: 8 nM for the first, 10 nM for the second.

Compared with B9, B10 is 2.8-fold lower in IC50: 11 nM for the first, 4 nM for the second.

B11 was tested, and the IC50 was 16 nM.
